Key:
[1] = target: E. coli PAPS reductase (E. coli); assay: SEC; Superdex 200 gel filtration; 50 mM Tris-HCl (pH 8.0), 10% glycerol, 5 mM DTT, ionic strength adjusted to 150 mM with NaCl; column calibrated with protein standards; no change in retention volume when DTT was omitted
[2] = target: the molecule itself; assay: as above

Molecule	stoichiometry N [1]	stoichiometry N [2]
E. coli PAPS reductase (enzyme)	2	
P. aeruginosa APS reductase (enzyme, UniProt O05927 1-267, looked up, APS reductase of P. aeruginosa, gene amplified from P. aeruginosa genomic DNA ATCC 47085D; Cloned into pET24b or pET14b; source: E. coli BL21(DE3), purified (HiTrap Chelating, Superdex 200 gel filtration)) MLPFATIPATERNSAAQHQDPSPMSQPFDLPALASSLADKSPQDILKAAFEHFGDELWISFSGAEDVVLVDMAWKLNRNVKVFSLDTGRLHPETYRFIDQVREHYGIAIDVLSPDPRLLEPLVKEKGLFSFYRDGHGECCGIRKIEPLKRKLAGVRAWATGQRRDQSPGTRSQVAVLEIDGAFSTPEKPLYKFNPLSSMTSEEVWGYIRMLELPYNSLHERGYISIGCEPCTRPVLPNQHEREGRWWWEEATHKECGLHAGNLISKA		4
